Results on five molecules are retold here after publication PMC4431734, “Characterization of a Single-Stranded DNA-Binding-Like Protein from Nanoarchaeum equitans—A Nucleic Acid Binding Protein with Broad Substrate Specificity”.

Data set [1] deals with T1, NeqSSB-like protein (Nanoarchaeum equitans Kin4-M, UniProt Q74MP9 2-243).
T1 sequence: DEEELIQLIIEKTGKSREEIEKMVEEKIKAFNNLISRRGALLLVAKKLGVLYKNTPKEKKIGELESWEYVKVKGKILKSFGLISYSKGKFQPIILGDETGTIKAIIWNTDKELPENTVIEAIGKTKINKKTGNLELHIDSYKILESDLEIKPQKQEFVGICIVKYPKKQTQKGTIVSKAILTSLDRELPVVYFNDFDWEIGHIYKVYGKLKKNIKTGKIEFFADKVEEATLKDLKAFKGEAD
Put plainly: EMSA; 10 pmol DNA; smeary shift; EMSA: 20 mM Tris-HCl pH 7.5, 100 mM NaCl, 1 mM EDTA, 25 C, 10 min; fluorescence: 20 mM Tris-HCl pH 7.5, 1 mM EDTA, 2/100/500 mM NaCl, 25 C; SPR: 10 mM Hepes pH. The conditions noted are these: protein: recombinant; tags: N-terminal His tag with TEV site, removed by TEV; label: 5' fluorescein. On the technique in general: Mobility shift assays separate free from complexed probe on a gel.

Data set [2] addresses T1, NeqSSB-like protein. Put plainly: competition EMSA; mixed with 100 bp dsDNA; ssDNA bound preferentially at low protein; EMSA: 20 mM Tris-HCl pH 7.5, 100 mM NaCl, 1 mM EDTA, 25 C, 10 min; fluorescence: 20 mM Tris-HCl pH 7.5, 1 mM EDTA, 2/100/500 mM NaCl, 25 C; SPR: 10 mM Hepes pH. The conditions noted are these: protein: recombinant; tags: N-terminal His tag with TEV site, removed by TEV; label: 5' fluorescein.

Data set [3] addresses T1, NeqSSB-like protein. The data set can be described thus: EMSA; 10 pmol DNA; EMSA: 20 mM Tris-HCl pH 7.5, 100 mM NaCl, 1 mM EDTA, 25 C, 10 min; fluorescence: 20 mM Tris-HCl pH 7.5, 1 mM EDTA, 2/100/500 mM NaCl, 25 C; SPR: 10 mM Hepes pH. The note with it: protein: recombinant; tags: N-terminal His tag with TEV site, removed by TEV; label: 5' fluorescein.
Data set [4] concerns the target T1, NeqSSB-like protein. The data set can be described thus: SPR; kon 7.91e3 1/Ms; koff 2.39e-2 1/s; EMSA: 20 mM Tris-HCl pH 7.5, 100 mM NaCl, 1 mM EDTA, 25 C, 10 min; fluorescence: 20 mM Tris-HCl pH 7.5, 1 mM EDTA, 2/100/500 mM NaCl, 25 C; SPR: 10 mM Hepes pH. The note with it: protein: recombinant; tags: N-terminal His tag with TEV site, removed by TEV; label: 3' biotin. Background: Surface plasmon resonance follows binding to a sensor surface in real time, without labels.

For a further data set, the target named is EcoSSB (Escherichia coli, UniProt P0AGE0 1-178). The data set can be described thus: SPR; kon 3.45e4 1/Ms; koff 1.85e-4 1/s; EMSA: 20 mM Tris-HCl pH 7.5, 100 mM NaCl, 1 mM EDTA, 25 C, 10 min; fluorescence: 20 mM Tris-HCl pH 7.5, 1 mM EDTA, 2/100/500 mM NaCl, 25 C; SPR: 10 mM Hepes pH. The note with it: protein: recombinant; chain copies: 4; label: 3' biotin.

Data set [5] has as its target T1, NeqSSB-like protein. The data set can be described thus: SPR; kon 8.30e3 1/Ms; koff 4.89e-2 1/s; EMSA: 20 mM Tris-HCl pH 7.5, 100 mM NaCl, 1 mM EDTA, 25 C, 10 min; fluorescence: 20 mM Tris-HCl pH 7.5, 1 mM EDTA, 2/100/500 mM NaCl, 25 C; SPR: 10 mM Hepes pH. The note with it: protein: recombinant; tags: N-terminal His tag with TEV site, removed by TEV; label: 3' biotin on strand 1; blunt.

Sequence of EcoSSB (P0AGE0 whole entry): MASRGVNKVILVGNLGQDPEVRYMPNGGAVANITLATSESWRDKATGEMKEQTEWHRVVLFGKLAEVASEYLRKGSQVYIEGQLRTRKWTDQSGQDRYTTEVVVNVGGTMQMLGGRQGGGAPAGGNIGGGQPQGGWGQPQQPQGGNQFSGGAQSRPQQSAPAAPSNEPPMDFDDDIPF

As to TTTTTTTTTTTTTTTTTTTTTTTTTTTTTTTTTTT (ssDNA) [(dT)35], the binding result with NeqSSB-like protein [1] is listed as “binds”.

B1: (dT)76 (ssDNA)
DNA: TTTTTTTTTTTTTTTTTTTTTTTTTTTTTTTTTTTTTTTTTTTTTTTTTTTTTTTTTTTTTTTTTTTTTTTTTTTT
For the molecule B1, in the data set with NeqSSB-like protein [2], the binding result is “binds”.

B2: (dT)120 (ssDNA)
DNA: TTTTTTTTTTTTTTTTTTTTTTTTTTTTTTTTTTTTTTTTTTTTTTTTTTTTTTTTTTTTTTTTTTTTTTTTTTTTTTTTTTTTTTTTTTTTTTTTTTTTTTTTTTTTTTTTTTTTTTTT
Consider B2, for which, in the data set with NeqSSB-like protein [3], the binding result is reported as “binds”.

B3: ssDNA 60-mer (ssDNA)
DNA: AATTCTGGGTGTGTGGGTGTGTGGGTGTGTGGGTGTGGTCAAGTTGACTACGTATACATC
By Kd is commonly meant the equilibrium constant for the complex coming apart. As for B3, the Kd was 2.66 µM with NeqSSB-like protein [4] and 0.00536 µM with EcoSSB.

B4: dsDNA 60-mer (dsDNA)
DNA 1: B3 DNA
DNA 2: GATGTATACGTAGTCAACTTGACCACACCCACACACCCACACACCCACACACCCAGAATT
B4: the equilibrium dissociation constant (Kd) with NeqSSB-like protein [5] was 5.26 µM.
